Measured values: PMC4344342

Target: RpL26-eGFP (UniProt P61254)
Test: fluorescence cross-correlation spectroscopy (FCCS); live HeLa cells co-transfected with the two labelled proteins, two-photon excitation at 1020 nm, green and red channels, cytoplasm

**Q.** NCp7-mCherry (natural protein) was tested. Which percent of NCp7-mCherry molecules that cross-correlate with RpL26-eGFP did it give?
**A.** 40 to 70%
